Data taken from patent publication US20180298070A1, “PEPTIDE COMPOUND” (Takeda Pharmaceutical Company Limited, published 2018).
Non-standard residues stand in square brackets, D forms with d. Groups on a side chain read outwards from the residue. Primed or numbered codes have the meaning given here. No end group written: not given here. *: point of attachment. C20 diacid = O=C(O)CCCCCCCCCCCCCCCCCCC(=O)*; Iva = CC[C@](C)(N)C(=O)O; PEG3′ = not defined here; Aib = CC(C)(N)C(=O)O

Columns and labels:
[1] = target: T1, human GIPR (human, UniProt P48546); assay: [125I]GIP competition, human GIPR VLP
T1 sequence: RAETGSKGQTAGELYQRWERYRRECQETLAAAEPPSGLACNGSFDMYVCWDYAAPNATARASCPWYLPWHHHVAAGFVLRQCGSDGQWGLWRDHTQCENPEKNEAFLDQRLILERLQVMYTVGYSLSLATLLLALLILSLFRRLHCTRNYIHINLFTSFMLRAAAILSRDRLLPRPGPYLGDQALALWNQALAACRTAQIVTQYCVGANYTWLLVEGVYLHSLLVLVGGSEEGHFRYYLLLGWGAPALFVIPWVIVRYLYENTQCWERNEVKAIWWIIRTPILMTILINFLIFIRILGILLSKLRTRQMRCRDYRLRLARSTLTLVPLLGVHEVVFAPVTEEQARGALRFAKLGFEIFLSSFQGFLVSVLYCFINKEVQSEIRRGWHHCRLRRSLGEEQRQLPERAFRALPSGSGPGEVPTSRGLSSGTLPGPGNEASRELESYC
Experimental: (§1) For the measurement of the binding activity to GIPR, [¹²⁵I]GIP (PerkinElmer, Inc.) in a final concentration of 100 pM and a test compound in a specified concentration were mixed to GIPR_VLP in an assay buffer (50 mM HEPES (pH 7.4, WAKO 342-01375), 5 mM EGTA (WAKO 346-01312), 5 mM MgCl₂ (WAKO 136-03995), 0.1% BSA (Merckmillipore 81-066-04) and 0.005% Tween 20 (BioRad 170-6531)) and reacted at room temperature for 2 hours. VLP to which [¹²⁵I ]GIP was bound was trapped in a GF/C glass fiber filter 96-well plate (PerkinElmer 6005274) using a cell harvester and washed with an assay buffer. The GF/C glass fiber filter 96-well plate in which VLP was trapped was dried at 42° C. overnight. Thereafter, MicroScint-O (PerkinElmer 6013611) was added to the GF/C glass fiber filter 96-well plate sealed using a backseal and the plate was sealed using a topseal. The radioactivity of each well was eventually measured using Topcount (PerkinElmer) and the binding activity of the test compound to GIPR was calculated when the [¹²⁵I]GIP binding activity in the presence of GIP in a final concentration of […] was 100% and the [¹²⁵I]GIP binding activity of the wells to which DMSO was added was 0%.

[2] = target: T2, human GIPR (human, UniProt P48546); assay: [125I]GIP displacement, hGIPR VLP
T2 sequence: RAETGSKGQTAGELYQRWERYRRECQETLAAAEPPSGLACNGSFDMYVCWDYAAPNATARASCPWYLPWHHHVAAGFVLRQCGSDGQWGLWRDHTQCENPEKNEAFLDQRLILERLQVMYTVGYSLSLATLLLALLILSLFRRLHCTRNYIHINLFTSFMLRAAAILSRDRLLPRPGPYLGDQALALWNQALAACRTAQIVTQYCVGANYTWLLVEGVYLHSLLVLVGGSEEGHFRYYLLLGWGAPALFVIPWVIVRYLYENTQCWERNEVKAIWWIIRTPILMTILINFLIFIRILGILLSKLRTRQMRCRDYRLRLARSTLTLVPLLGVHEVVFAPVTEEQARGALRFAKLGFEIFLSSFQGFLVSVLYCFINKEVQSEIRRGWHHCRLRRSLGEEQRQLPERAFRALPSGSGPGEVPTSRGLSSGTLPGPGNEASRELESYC
Experimental: as §1

[3] = target: T3, human GIPR (human), P48546; assay: [125I]GIP competition, human GIPR VLP
T3 chain: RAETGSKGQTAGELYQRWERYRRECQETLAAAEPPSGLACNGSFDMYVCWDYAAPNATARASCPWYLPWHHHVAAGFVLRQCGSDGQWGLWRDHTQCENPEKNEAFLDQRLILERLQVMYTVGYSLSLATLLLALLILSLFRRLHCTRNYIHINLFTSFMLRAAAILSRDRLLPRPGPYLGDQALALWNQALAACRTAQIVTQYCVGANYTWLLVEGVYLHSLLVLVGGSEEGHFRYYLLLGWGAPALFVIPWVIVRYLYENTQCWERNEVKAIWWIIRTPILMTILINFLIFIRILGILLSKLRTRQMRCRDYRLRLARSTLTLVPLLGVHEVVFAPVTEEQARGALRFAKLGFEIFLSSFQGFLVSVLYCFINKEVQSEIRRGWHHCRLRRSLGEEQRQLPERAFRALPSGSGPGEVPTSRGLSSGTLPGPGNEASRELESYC

[4] = target: T3, human GIPR (human), P48546
[5] = target: T4, human GLP-1R (human), P43220
T4 chain: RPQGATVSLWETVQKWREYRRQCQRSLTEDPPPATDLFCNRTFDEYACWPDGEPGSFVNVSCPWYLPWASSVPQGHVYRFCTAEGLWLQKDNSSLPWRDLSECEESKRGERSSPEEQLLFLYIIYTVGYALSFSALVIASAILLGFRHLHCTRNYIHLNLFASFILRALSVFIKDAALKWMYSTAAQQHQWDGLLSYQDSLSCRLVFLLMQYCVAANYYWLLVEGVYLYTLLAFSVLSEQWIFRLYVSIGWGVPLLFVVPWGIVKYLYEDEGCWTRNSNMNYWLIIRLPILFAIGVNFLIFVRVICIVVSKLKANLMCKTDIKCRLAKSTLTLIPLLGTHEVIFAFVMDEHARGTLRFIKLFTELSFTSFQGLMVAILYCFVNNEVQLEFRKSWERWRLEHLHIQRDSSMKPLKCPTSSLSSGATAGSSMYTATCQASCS

[6] = target: T5, human GIPR (human, UniProt P48546); assay: cell-based or functional assay
T5 sequence: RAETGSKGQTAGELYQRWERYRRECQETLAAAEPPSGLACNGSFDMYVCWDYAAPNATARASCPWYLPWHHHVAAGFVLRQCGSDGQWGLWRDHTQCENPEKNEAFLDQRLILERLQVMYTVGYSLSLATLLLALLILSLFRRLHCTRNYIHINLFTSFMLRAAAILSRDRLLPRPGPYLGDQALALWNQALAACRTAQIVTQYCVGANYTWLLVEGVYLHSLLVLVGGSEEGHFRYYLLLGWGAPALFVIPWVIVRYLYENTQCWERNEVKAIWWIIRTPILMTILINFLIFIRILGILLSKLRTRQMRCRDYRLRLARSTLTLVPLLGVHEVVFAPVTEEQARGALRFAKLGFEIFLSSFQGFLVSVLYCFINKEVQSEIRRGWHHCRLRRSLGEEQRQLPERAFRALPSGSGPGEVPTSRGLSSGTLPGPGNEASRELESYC

[7] = target: human GLP-1R (human, UniProt P43220); assay: cell-based or functional assay

| Binder | IC50 [2] [nM] | IC50 [3] [nM] | Agonist activity (EC50, M) [4] [M] | Agonist activity (EC50, M) [5] [M] | further results |
| --- | --- | --- | --- | --- | --- |
| YXEGTXISDYSIXLDRXAQXNFVNWXLAQRPSSGAPPPS (N-terminal methyl (Me-Tyr); Aib at 2, 13, 20; Iva at 6, 26; Lys(Oda-GGGGGG-) at 17; C-terminal NH2) [Compound 496] | – | – | – | – | IC50 [1]: 10 nM |
| YXEGTXISDYSIXLDRXAQXNFVNWXLAQRPSSGAPPPS (not fully specified; N-methyl on Tyr 1; Aib at 2, 13, 20; Iva at 6, 26; Lys(Eda-PEG(3)-PEG(3)-) at 17; C-terminal amide) [Compound 307] | 5 | – | – | – | – |
| Y[Aib]EGTVVSLYSK([PEG3′-PEG3′-C20 diacid])[Aib]LDRQAQ[Aib]EFVK(Ac)WLLRGGPSSGAPPPS (ends and bridges not checked) [Compound 324] | – | 7.8 | – | – | – |
| Y[Aib]EGTFISDYSIAK([PEG(2)-C20 diacid])DRIAQQNFVNW[Iva]LAQR (ends and bridges not checked) [Compound 389] | – | 19 | 8e-11 | > 1e-06 | – |
| YAEGTVVSLYSIALDKQHQQEFVKWLLKGGPSSGAPPPSK [Compound 24, listing 1 of 2 here] | 370 | – | – | – | – |
| YAEGTVVSLYSIALYKIHQQEFVKWLLKGGPSSGAPPPSK [Compound 26, listing 1 of 2 here] | 420 | – | – | – | – |
| YAEGTVVSLYSIALYKIHQQEFVKWLLKGGPSSGAPPPSK [Compound 26, listing 2 of 2 here] | – | – | – | – | Agonist activity (EC50, M) [6]: 1.2e-08 M; Agonist activity (EC50, M) [7]: > 1e-06 M |
| YAEGTVVSLYSIALDKIHQQEFVKWLLKGGPSSGAPPPSK [Compound 25, listing 1 of 2 here] | 520 | – | – | – | – |
| YAEGTVVSLYSIALDKIHQQEFVKWLLKGGPSSGAPPPSK [Compound 25, listing 2 of 2 here] | – | – | – | – | Agonist activity (EC50, M) [6]: 1.4e-09 M; Agonist activity (EC50, M) [7]: > 1e-06 M |
| YAEGTVVSLYSIALDKQHQQEFVKWLLKGGPSSGAPPPSK [Compound 24, listing 2 of 2 here] | – | – | – | – | Agonist activity (EC50, M) [6]: 5.1e-09 M; Agonist activity (EC50, M) [7]: > 1e-06 M |
| Y[Aib]EGTFISDYSIALDRK([PEG(2)-C20 diacid])AQQNFVNW[Iva]LAQRPSSGAPPPS (not fully specified (C-terminus); ends and bridges not checked) [Compound 408] | – | 84 | 4.8e-10 | > 1e-06 | – |
| Y[Aib]EGTFISDYSIALDRK([PEG(2)-C20 diacid])AQQNFVNW[Iva]LAQRPSSGAPPPS (not fully specified (C-terminus); ends and bridges not checked) [Compound 404] | – | 24 | 1.1e-10 | > 1e-06 | – |
| Y[Aib]EGTFISDYSK([PEG(2)-C20 diacid])ALDRIAQQNFVNW[Iva]LAQRPSSGAPPPS (ends and bridges not checked) [Compound 381] | – | 8.7 | 4.4e-11 | > 1e-06 | – |
